This is an account of results in US20240182897.

The test system of the data set is T1, pegylated peptide-linked C12-miR (P.5-L-C12-miR).
T1 sequence: KGDGG

In the case of “lysosomal enzyme Cathepsin D (Cat. No. C8696, Sigma-Aldrich)”, the “enzyme cleavage in vitro, size reduction on 15% acrylamide/8 M urea gel” value is “the pegylated peptide-linked C12-miR (P.5-L-C12-miR) was cleaved by lysosomal cathepsin D and resulted in a smaller fragment”.
